Results from US5916561.

Experiments:
[1] = biological target: CD44 (variant isoforms not specified) on CX-1 cells (human) (UniProt P16070); assay: 3H-labelled antibody on ethanol-fixed CX-1 cells
[2] = biological target: soluble CD44 variants containing exon v6 in normal human serum (human) (UniProt P16070); assay: sandwich ELISA, coating antibody, serum 2 diluted 1:320, detection BU-52-peroxidase
[3] = biological target: soluble CD44 variants containing exon v6 in normal human serum (human) (UniProt P16070); assay: sandwich ELISA, coating antibody, serum 1 diluted 1:640, detection BU-52-peroxidase
[4] = biological target: soluble CD44 variants containing exon v6 in normal human serum (human) (UniProt P16070); assay: sandwich ELISA, coating antibody, serum 1 diluted 1:20, detection BU-52-peroxidase
[5] = biological target: soluble CD44 variants containing exon v6 in normal human serum (human) (UniProt P16070); assay: sandwich ELISA, coating antibody, serum 2 diluted 1:40, detection BU-52-peroxidase
[6] = biological target: soluble CD44 variants containing exon v6 in normal human serum (human) (UniProt P16070); assay: sandwich ELISA, serum of donor 1, calibrated on recombinant soluble CD44v3-v10; reference VFF-7
[7] = biological target: CD44 (variant isoforms not specified) on CaCo cells (human) (UniProt P16070); assay: 3H-labelled antibody on ethanol-fixed CaCo cells
[8] = biological target: CD44 (variant isoforms not specified) on HCT-116 cells (human) (UniProt P16070); assay: 3H-labelled antibody on ethanol-fixed HCT-116 cells
[9] = biological target: CD44 (variant isoforms not specified) on A431 cells (human) (UniProt P16070); assay: 3H-labelled antibody on ethanol-fixed A431 cells
[10] = biological target: CD44 (variant isoforms not specified) on COLO 205 cells (human) (UniProt P16070); assay: 3H-labelled antibody on ethanol-fixed COLO 205 cells
[11] = biological target: soluble CD44 variants containing exon v6 in normal human serum (human) (UniProt P16070); assay: sandwich ELISA, serum of donor 6, calibrated on recombinant soluble CD44v3-v10; reference VFF-7
[12] = biological target: soluble CD44 variants containing exon v6 in normal human serum (human) (UniProt P16070); assay: sandwich ELISA, serum of donor 4, calibrated on recombinant soluble CD44v3-v10; reference VFF-7
[13] = biological target: soluble CD44 variants containing exon v6 in normal human serum (human) (UniProt P16070); assay: sandwich ELISA, coating antibody, serum 2 diluted 1:640, detection BU-52-peroxidase
[14] = biological target: soluble CD44 variants containing exon v6 in normal human serum (human) (UniProt P16070); assay: sandwich ELISA, coating antibody, serum 1 diluted 1:160, detection BU-52-peroxidase
[15] = biological target: soluble CD44 variants containing exon v6 in normal human serum (human) (UniProt P16070); assay: sandwich ELISA, sera of 6 healthy donors, calibrated on recombinant soluble CD44v3-v10; reference VFF-7
[16] = biological target: human variant CD44 (exons v3-v10) on the cell surface of CHO-CD44var cells (human) (UniProt P16070); assay: 3H-labelled antibody on ethanol-fixed CHO CD44var cells
[17] = biological target: soluble CD44 variants containing exon v6 in normal human serum (human) (UniProt P16070); assay: sandwich ELISA, serum of donor 3, calibrated on recombinant soluble CD44v3-v10; reference VFF-7
[18] = biological target: soluble CD44 variants containing exon v6 in normal human serum (human) (UniProt P16070); assay: sandwich ELISA, serum of donor 2, calibrated on recombinant soluble CD44v3-v10; reference VFF-7
[19] = biological target: soluble CD44 variants containing exon v6 in normal human serum (human) (UniProt P16070); assay: sandwich ELISA, coating antibody, serum 1 diluted 1:80, detection BU-52-peroxidase
[20] = biological target: soluble CD44 variants containing exon v6 in normal human serum (human) (UniProt P16070); assay: sandwich ELISA, coating antibody, serum 1 diluted 1:5, detection BU-52-peroxidase
[21] = biological target: soluble CD44 variants containing exon v6 in normal human serum (human) (UniProt P16070); assay: sandwich ELISA, coating antibody, serum 2 diluted 1:5, detection BU-52-peroxidase
[22] = biological target: soluble CD44 variants containing exon v6 in normal human serum (human) (UniProt P16070); assay: sandwich ELISA, coating antibody, serum 2 diluted 1:10, detection BU-52-peroxidase
[23] = biological target: soluble CD44 variants containing exon v6 in normal human serum (human) (UniProt P16070); assay: sandwich ELISA, serum of donor 5, calibrated on recombinant soluble CD44v3-v10; reference VFF-7
[24] = biological target: soluble CD44 variants containing exon v6 in normal human serum (human) (UniProt P16070); assay: sandwich ELISA, coating antibody, serum 2 diluted 1:160, detection BU-52-peroxidase
[25] = biological target: CD44 (variant isoforms not specified) on HT-29 cells (human) (UniProt P16070); assay: 3H-labelled antibody on ethanol-fixed HT-29 cells
[26] = biological target: soluble CD44 variants containing exon v6 in normal human serum (human) (UniProt P16070); assay: sandwich ELISA, coating antibody, serum 1 diluted 1:10, detection BU-52-peroxidase
[27] = biological target: soluble CD44 variants containing exon v6 in normal human serum (human) (UniProt P16070); assay: sandwich ELISA, coating antibody, serum 2 diluted 1:20, detection BU-52-peroxidase
[28] = biological target: soluble CD44 variants containing exon v6 in normal human serum (human) (UniProt P16070); assay: sandwich ELISA, coating antibody, serum 1 diluted 1:320, detection BU-52-peroxidase
[29] = biological target: soluble CD44 variants containing exon v6 in normal human serum (human) (UniProt P16070); assay: sandwich ELISA, coating antibody, serum 2 diluted 1:80, detection BU-52-peroxidase
[30] = biological target: soluble CD44 variants containing exon v6 in normal human serum (human) (UniProt P16070); assay: sandwich ELISA, coating antibody, serum 1 diluted 1:40, detection BU-52-peroxidase

Substance	specific binding (bound antibody per 400 000 cells) [1]	absorption (sandwich ELISA signal) (absorption at 450 nm) [2]	absorption (sandwich ELISA signal) (absorption at 450 nm) [3]	absorption (sandwich ELISA signal) (absorption at 450 nm) [4]	absorption (sandwich ELISA signal) (absorption at 450 nm) [5]	specific binding (bound antibody per 400 000 cells) [7]	specific binding (bound antibody per 400 000 cells) [8]	specific binding (bound antibody per 400 000 cells) [9]	absorption (sandwich ELISA signal) (absorption at 450 nm) [13]	absorption (sandwich ELISA signal) (absorption at 450 nm) [14]	absorption (sandwich ELISA signal) (absorption at 450 nm) [19]	absorption (sandwich ELISA signal) (absorption at 450 nm) [20]	absorption (sandwich ELISA signal) (absorption at 450 nm) [21]	absorption (sandwich ELISA signal) (absorption at 450 nm) [22]	absorption (sandwich ELISA signal) (absorption at 450 nm) [24]	absorption (sandwich ELISA signal) (absorption at 450 nm) [26]	absorption (sandwich ELISA signal) (absorption at 450 nm) [27]	absorption (sandwich ELISA signal) (absorption at 450 nm) [28]	absorption (sandwich ELISA signal) (absorption at 450 nm) [29]	absorption (sandwich ELISA signal) (absorption at 450 nm) [30]	also measured
antibody VFF-18	9.48 fmol	0.988	0.159	2.63	3.05	12.6 fmol	20.2 fmol	38.7 fmol	0.546	0.594	1.08	3.14	3.29	3.32	1.67	3.06	3.16	0.318	2.54	1.78	VFF-18/VFF-7 (ratio of the serum levels read by the two ELISAs) [6]: 4.17; specific binding (bound antibody per 400 000 cells) [10]: 2.88 fmol; VFF-18/VFF-7 (ratio of the serum levels read by the two ELISAs) [11]: 3.48; VFF-18/VFF-7 (ratio of the serum levels read by the two ELISAs) [12]: 3.31; VFF-18/VFF-7 (mean value of the ratio over 6 donors) [15]: 3.53; specific binding (bound antibody per 400 000 cells) [16]: 46.5 fmol; VFF-18/VFF-7 (ratio of the serum levels read by the two ELISAs) [17]: 3.91; VFF-18/VFF-7 (ratio of the serum levels read by the two ELISAs) [18]: 2.66; VFF-18/VFF-7 (ratio of the serum levels read by the two ELISAs) [23]: 3.67; specific binding (bound antibody per 400 000 cells) [25]: 26.1 fmol
antibody VFF-7	0.19 fmol	0.014	0.007	0.179	0.468	0.03 fmol	1.44 fmol	8.19 fmol	0.018	0.03	0.062	0.417	1.28	1.19	0.061	0.289	0.857	0.008	0.208	0.072	specific binding (bound antibody per 400 000 cells) [10]: 0 fmol; specific binding (bound antibody per 400 000 cells) [16]: 33.5 fmol; specific binding (bound antibody per 400 000 cells) [25]: 0 fmol
antibody VFF-4	–	0.138	0.012	0.296	1.21	–	–	–	0.054	0.05	0.109	0.406	1.69	1.76	0.336	0.378	1.56	0.026	0.699	0.207	–
